“And” between values parts separate entries of the source, which are not always exact repeats. Equal entries are not always repeated.

Results on three substances are retold here after article PMC11109247.

Assay [1] deals with HeV G ectodomain (Hendra virus attachment glycoprotein, residues 71-604), Strep-tagged (Hendra virus) (UniProt O89343). Nature of the assay: SDS-PAGE without reduction and boiling.
Assay [2] concerns the target NiVMY G ectodomain (Nipah virus Malaysia attachment glycoprotein, residues 71-602), Strep-tagged (Nipah virus (Malaysia strain)) (UniProt Q9IH62). Nature of the assay: SDS-PAGE without reduction and boiling.
The target in assay [3] is prefusion soluble NiV F (sF; NiVBD fusion protein residues 26-482 with GCNt motif) (Nipah virus Bangladesh (NiVBD)). The assay is described as follows: BLI.
Assay [4] shares this target. The assay is described as follows: MST.

In the case of “HeV G ectodomain (Hendra virus attachment glycoprotein, residues 71-604), Strep-tagged (from UniProt O89343 71-604) (domain or fragment)”, the stoichiometry N in assay [1] was 4 and 2.

As for “NiVMY G ectodomain (Nipah virus Malaysia attachment glycoprotein, residues 71-602), Strep-tagged (from UniProt Q9IH62 71-602) (domain or fragment)”, in assay [2], the stoichiometry N was 4 and 2.

In the case of P-59 (peptide of NiVBD G, 233-247 aa), the equilibrium dissociation constant (Kd) in assay [3] was determined as 190 nM; in assay [4] it was 5 µM.
